molecular target: T1, soluble human GPC3 (human, UniProt P51654 25-563, limits assumed); assay: SPR (Biacore), single-arm antibody, soluble human GPC3
T1 construct: also called glypican 3
T1 sequence (P51654 other isoform, or with tags, fused parts or gaps limits assumed, form in doubt): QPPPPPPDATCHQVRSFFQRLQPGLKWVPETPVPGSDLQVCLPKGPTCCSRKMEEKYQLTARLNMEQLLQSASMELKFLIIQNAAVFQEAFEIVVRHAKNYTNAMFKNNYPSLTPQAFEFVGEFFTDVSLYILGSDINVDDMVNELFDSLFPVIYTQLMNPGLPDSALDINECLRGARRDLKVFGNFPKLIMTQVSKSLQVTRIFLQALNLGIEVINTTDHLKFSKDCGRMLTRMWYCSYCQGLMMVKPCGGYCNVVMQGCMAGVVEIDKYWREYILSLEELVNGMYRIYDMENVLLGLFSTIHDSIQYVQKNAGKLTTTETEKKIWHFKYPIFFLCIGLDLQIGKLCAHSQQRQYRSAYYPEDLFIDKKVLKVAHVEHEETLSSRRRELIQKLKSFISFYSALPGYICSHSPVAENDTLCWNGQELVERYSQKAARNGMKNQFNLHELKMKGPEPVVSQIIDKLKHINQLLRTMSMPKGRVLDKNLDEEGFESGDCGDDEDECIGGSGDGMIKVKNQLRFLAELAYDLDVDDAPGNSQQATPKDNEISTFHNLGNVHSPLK

| Kd | Binder |
| --- | --- |
| 6.23 nM | GCH068-G1dh/none-Hi-Kn010G3/L0000-k0 (antibody, human IgG1, kappa, single-arm antibody) heavy: not shown EPKSSDKTHTCPPCPAPELLGGPSVFLFPPKPKDTLMISRTPEVTCVVVDVSHEDPEVKFNWYVDGVEVHNAKTKPREEQYNSTYRVVSVLTVLHQDWLNGKEYKCKVSNKALPAPIEKTISKAKGQPREPQVCTLPPSRDELTKNQVSLWCLVKGFYPSDIAVEWESNGQPENNYKTTPPVLDSDGSFFLYSKLTVDKSRWQQGNVFSCSVMHEALHNRYTQKSLSLSP light: DIVMTQSPLSLPVTPGEPASISCRSSQSLVHSNRNTYLHWYQQKPGQAPRLLIYKVSNRFSGVPDRFSGSGSGTDFTLKISRVEAEDVGVYYCGQGTQVPYTFGQGTKLEIKRTVAAPSVFIFPPSDEQLKSGTASVVCLLNNFYPREAKVQWKVDNALQSGNSQESVTEQDSKDSTYSLSSTLTLSKADYEKHKVYACEVTHQGLSSPVTKSFNRGEC |
| 5.9 nM | H0610-G1dh/none-Hi-Kn010G3/L0104-k0 (antibody, human IgG1, kappa, single-arm antibody) heavy: not shown EPKSSDKTHTCPPCPAPELLGGPSVFLFPPKPKDTLMISRTPEVTCVVVDVSHEDPEVKFNWYVDGVEVHNAKTKPREEQYNSTYRVVSVLTVLHQDWLNGKEYKCKVSNKALPAPIEKTISKAKGQPREPQVCTLPPSRDELTKNQVSLWCLVKGFYPSDIAVEWESNGQPENNYKTTPPVLDSDGSFFLYSKLTVDKSRWQQGNVFSCSVMHEALHNRYTQKSLSLSP light: DIVMTQSPLSLPVTPGEPASISCRSSQSLVHSNRNTYLHWYQQKPGQAPRLLIYKVSFRFSGVPDRFSGSGSGTDFTLKISRVEAEDVGVYYCGQGTQVPYTFGQGTKLEIKRTVAAPSVFIFPPSDEQLKSGTASVVCLLNNFYPREAKVQWKVDNALQSGNSQESVTEQDSKDSTYSLSSTLTLSKADYEKHKVYACEVTHQGLSSPVTKSFNRGEC |
| 4.82 nM | H0610-G1dh/none-Hi-Kn010G3/L0113-k0 (antibody, human IgG1, kappa, single-arm antibody) heavy: not shown EPKSSDKTHTCPPCPAPELLGGPSVFLFPPKPKDTLMISRTPEVTCVVVDVSHEDPEVKFNWYVDGVEVHNAKTKPREEQYNSTYRVVSVLTVLHQDWLNGKEYKCKVSNKALPAPIEKTISKAKGQPREPQVCTLPPSRDELTKNQVSLWCLVKGFYPSDIAVEWESNGQPENNYKTTPPVLDSDGSFFLYSKLTVDKSRWQQGNVFSCSVMHEALHNRYTQKSLSLSP light: DIVMTQSPLSLPVTPGEPASISCRSSQSLVHSNRNTYLHWYQQKPGQAPRLLIYKVSTRFSGVPDRFSGSGSGTDFTLKISRVEAEDVGVYYCGQGTQVPYTFGQGTKLEIKRTVAAPSVFIFPPSDEQLKSGTASVVCLLNNFYPREAKVQWKVDNALQSGNSQESVTEQDSKDSTYSLSSTLTLSKADYEKHKVYACEVTHQGLSSPVTKSFNRGEC |
| 5.45 nM | H0610-G1dh/none-Hi-Kn010G3/L0046-k0 (antibody, human IgG1, kappa, single-arm antibody) heavy: not shown EPKSSDKTHTCPPCPAPELLGGPSVFLFPPKPKDTLMISRTPEVTCVVVDVSHEDPEVKFNWYVDGVEVHNAKTKPREEQYNSTYRVVSVLTVLHQDWLNGKEYKCKVSNKALPAPIEKTISKAKGQPREPQVCTLPPSRDELTKNQVSLWCLVKGFYPSDIAVEWESNGQPENNYKTTPPVLDSDGSFFLYSKLTVDKSRWQQGNVFSCSVMHEALHNRYTQKSLSLSP light: DIVMTQSPLSLPVTPGEPASISCRSSQSLVHVNRNTYLHWYQQKPGQAPRLLIYKVSNRFSGVPDRFSGSGSGTDFTLKISRVEAEDVGVYYCGQGTQVPYTFGQGTKLEIKRTVAAPSVFIFPPSDEQLKSGTASVVCLLNNFYPREAKVQWKVDNALQSGNSQESVTEQDSKDSTYSLSSTLTLSKADYEKHKVYACEVTHQGLSSPVTKSFNRGEC |
| 6.03 nM | H0610-G1dh/none-Hi-Kn010G3/L0063-k0 (antibody, human IgG1, kappa, single-arm antibody) heavy: not shown EPKSSDKTHTCPPCPAPELLGGPSVFLFPPKPKDTLMISRTPEVTCVVVDVSHEDPEVKFNWYVDGVEVHNAKTKPREEQYNSTYRVVSVLTVLHQDWLNGKEYKCKVSNKALPAPIEKTISKAKGQPREPQVCTLPPSRDELTKNQVSLWCLVKGFYPSDIAVEWESNGQPENNYKTTPPVLDSDGSFFLYSKLTVDKSRWQQGNVFSCSVMHEALHNRYTQKSLSLSP light: DIVMTQSPLSLPVTPGEPASISCRSSQSLVHSNRETYLHWYQQKPGQAPRLLIYKVSNRFSGVPDRFSGSGSGTDFTLKISRVEAEDVGVYYCGQGTQVPYTFGQGTKLEIKRTVAAPSVFIFPPSDEQLKSGTASVVCLLNNFYPREAKVQWKVDNALQSGNSQESVTEQDSKDSTYSLSSTLTLSKADYEKHKVYACEVTHQGLSSPVTKSFNRGEC |
| 5.43 nM | H0610-G1dh/none-Hi-Kn010G3/L0091-k0 (antibody, human IgG1, kappa, single-arm antibody) heavy: not shown EPKSSDKTHTCPPCPAPELLGGPSVFLFPPKPKDTLMISRTPEVTCVVVDVSHEDPEVKFNWYVDGVEVHNAKTKPREEQYNSTYRVVSVLTVLHQDWLNGKEYKCKVSNKALPAPIEKTISKAKGQPREPQVCTLPPSRDELTKNQVSLWCLVKGFYPSDIAVEWESNGQPENNYKTTPPVLDSDGSFFLYSKLTVDKSRWQQGNVFSCSVMHEALHNRYTQKSLSLSP light: DIVMTQSPLSLPVTPGEPASISCRSSQSLVHSNRNTYLNWYQQKPGQAPRLLIYKVSNRFSGVPDRFSGSGSGTDFTLKISRVEAEDVGVYYCGQGTQVPYTFGQGTKLEIKRTVAAPSVFIFPPSDEQLKSGTASVVCLLNNFYPREAKVQWKVDNALQSGNSQESVTEQDSKDSTYSLSSTLTLSKADYEKHKVYACEVTHQGLSSPVTKSFNRGEC |
| 5.39 nM | GCH100-G1dh/none-Hi-Kn010G3/L0000-k0 (antibody, human IgG1, kappa, single-arm antibody) heavy: not shown EPKSSDKTHTCPPCPAPELLGGPSVFLFPPKPKDTLMISRTPEVTCVVVDVSHEDPEVKFNWYVDGVEVHNAKTKPREEQYNSTYRVVSVLTVLHQDWLNGKEYKCKVSNKALPAPIEKTISKAKGQPREPQVCTLPPSRDELTKNQVSLWCLVKGFYPSDIAVEWESNGQPENNYKTTPPVLDSDGSFFLYSKLTVDKSRWQQGNVFSCSVMHEALHNRYTQKSLSLSP light: DIVMTQSPLSLPVTPGEPASISCRSSQSLVHSNRNTYLHWYQQKPGQAPRLLIYKVSNRFSGVPDRFSGSGSGTDFTLKISRVEAEDVGVYYCGQGTQVPYTFGQGTKLEIKRTVAAPSVFIFPPSDEQLKSGTASVVCLLNNFYPREAKVQWKVDNALQSGNSQESVTEQDSKDSTYSLSSTLTLSKADYEKHKVYACEVTHQGLSSPVTKSFNRGEC |
| 5.24 nM | H0610-G1dh/none-Hi-Kn010G3/L0089-k0 (antibody, human IgG1, kappa, single-arm antibody) heavy: not shown EPKSSDKTHTCPPCPAPELLGGPSVFLFPPKPKDTLMISRTPEVTCVVVDVSHEDPEVKFNWYVDGVEVHNAKTKPREEQYNSTYRVVSVLTVLHQDWLNGKEYKCKVSNKALPAPIEKTISKAKGQPREPQVCTLPPSRDELTKNQVSLWCLVKGFYPSDIAVEWESNGQPENNYKTTPPVLDSDGSFFLYSKLTVDKSRWQQGNVFSCSVMHEALHNRYTQKSLSLSP light: DIVMTQSPLSLPVTPGEPASISCRSSQSLVHSNRNTYLLWYQQKPGQAPRLLIYKVSNRFSGVPDRFSGSGSGTDFTLKISRVEAEDVGVYYCGQGTQVPYTFGQGTKLEIKRTVAAPSVFIFPPSDEQLKSGTASVVCLLNNFYPREAKVQWKVDNALQSGNSQESVTEQDSKDSTYSLSSTLTLSKADYEKHKVYACEVTHQGLSSPVTKSFNRGEC |
| 5.7 nM | H0610-G1dh/none-Hi-Kn010G3/L0109-k0 (antibody, human IgG1, kappa, single-arm antibody) heavy: not shown EPKSSDKTHTCPPCPAPELLGGPSVFLFPPKPKDTLMISRTPEVTCVVVDVSHEDPEVKFNWYVDGVEVHNAKTKPREEQYNSTYRVVSVLTVLHQDWLNGKEYKCKVSNKALPAPIEKTISKAKGQPREPQVCTLPPSRDELTKNQVSLWCLVKGFYPSDIAVEWESNGQPENNYKTTPPVLDSDGSFFLYSKLTVDKSRWQQGNVFSCSVMHEALHNRYTQKSLSLSP light: DIVMTQSPLSLPVTPGEPASISCRSSQSLVHSNRNTYLHWYQQKPGQAPRLLIYKVSMRFSGVPDRFSGSGSGTDFTLKISRVEAEDVGVYYCGQGTQVPYTFGQGTKLEIKRTVAAPSVFIFPPSDEQLKSGTASVVCLLNNFYPREAKVQWKVDNALQSGNSQESVTEQDSKDSTYSLSSTLTLSKADYEKHKVYACEVTHQGLSSPVTKSFNRGEC |
| 5.32 nM | H0610-G1dh/none-Hi-Kn010G3/L0069-k0 (antibody, human IgG1, kappa, single-arm antibody) heavy: not shown EPKSSDKTHTCPPCPAPELLGGPSVFLFPPKPKDTLMISRTPEVTCVVVDVSHEDPEVKFNWYVDGVEVHNAKTKPREEQYNSTYRVVSVLTVLHQDWLNGKEYKCKVSNKALPAPIEKTISKAKGQPREPQVCTLPPSRDELTKNQVSLWCLVKGFYPSDIAVEWESNGQPENNYKTTPPVLDSDGSFFLYSKLTVDKSRWQQGNVFSCSVMHEALHNRYTQKSLSLSP light: DIVMTQSPLSLPVTPGEPASISCRSSQSLVHSNRMTYLHWYQQKPGQAPRLLIYKVSNRFSGVPDRFSGSGSGTDFTLKISRVEAEDVGVYYCGQGTQVPYTFGQGTKLEIKRTVAAPSVFIFPPSDEQLKSGTASVVCLLNNFYPREAKVQWKVDNALQSGNSQESVTEQDSKDSTYSLSSTLTLSKADYEKHKVYACEVTHQGLSSPVTKSFNRGEC |
| 5.14 nM | H0610-G1dh/none-Hi-Kn010G3/L0043-k0 (antibody, human IgG1, kappa, single-arm antibody) heavy: not shown EPKSSDKTHTCPPCPAPELLGGPSVFLFPPKPKDTLMISRTPEVTCVVVDVSHEDPEVKFNWYVDGVEVHNAKTKPREEQYNSTYRVVSVLTVLHQDWLNGKEYKCKVSNKALPAPIEKTISKAKGQPREPQVCTLPPSRDELTKNQVSLWCLVKGFYPSDIAVEWESNGQPENNYKTTPPVLDSDGSFFLYSKLTVDKSRWQQGNVFSCSVMHEALHNRYTQKSLSLSP light: DIVMTQSPLSLPVTPGEPASISCRSSQSLVHNNRNTYLHWYQQKPGQAPRLLIYKVSNRFSGVPDRFSGSGSGTDFTLKISRVEAEDVGVYYCGQGTQVPYTFGQGTKLEIKRTVAAPSVFIFPPSDEQLKSGTASVVCLLNNFYPREAKVQWKVDNALQSGNSQESVTEQDSKDSTYSLSSTLTLSKADYEKHKVYACEVTHQGLSSPVTKSFNRGEC |
| 5.89 nM | GCH094-G1dh/none-Hi-Kn010G3/L0000-k0 (antibody, human IgG1, kappa, single-arm antibody) heavy: not shown EPKSSDKTHTCPPCPAPELLGGPSVFLFPPKPKDTLMISRTPEVTCVVVDVSHEDPEVKFNWYVDGVEVHNAKTKPREEQYNSTYRVVSVLTVLHQDWLNGKEYKCKVSNKALPAPIEKTISKAKGQPREPQVCTLPPSRDELTKNQVSLWCLVKGFYPSDIAVEWESNGQPENNYKTTPPVLDSDGSFFLYSKLTVDKSRWQQGNVFSCSVMHEALHNRYTQKSLSLSP light: DIVMTQSPLSLPVTPGEPASISCRSSQSLVHSNRNTYLHWYQQKPGQAPRLLIYKVSNRFSGVPDRFSGSGSGTDFTLKISRVEAEDVGVYYCGQGTQVPYTFGQGTKLEIKRTVAAPSVFIFPPSDEQLKSGTASVVCLLNNFYPREAKVQWKVDNALQSGNSQESVTEQDSKDSTYSLSSTLTLSKADYEKHKVYACEVTHQGLSSPVTKSFNRGEC |
| 5.28 nM | H0610-G1dh/none-Hi-Kn010G3/L0062-k0 (antibody, human IgG1, kappa, single-arm antibody) heavy: not shown EPKSSDKTHTCPPCPAPELLGGPSVFLFPPKPKDTLMISRTPEVTCVVVDVSHEDPEVKFNWYVDGVEVHNAKTKPREEQYNSTYRVVSVLTVLHQDWLNGKEYKCKVSNKALPAPIEKTISKAKGQPREPQVCTLPPSRDELTKNQVSLWCLVKGFYPSDIAVEWESNGQPENNYKTTPPVLDSDGSFFLYSKLTVDKSRWQQGNVFSCSVMHEALHNRYTQKSLSLSP light: DIVMTQSPLSLPVTPGEPASISCRSSQSLVHSNRDTYLHWYQQKPGQAPRLLIYKVSNRFSGVPDRFSGSGSGTDFTLKISRVEAEDVGVYYCGQGTQVPYTFGQGTKLEIKRTVAAPSVFIFPPSDEQLKSGTASVVCLLNNFYPREAKVQWKVDNALQSGNSQESVTEQDSKDSTYSLSSTLTLSKADYEKHKVYACEVTHQGLSSPVTKSFNRGEC |
